# Experimental data from ChEMBL document CHEMBL1144764, “A molecular modeling study of the interaction of 2'-fluoro-substituted analogues of dUMP/FdUMP with thymidylate synthase” (Bioorg Med Chem Lett, 2008).
# B1: Thymidylate synthase (Homo sapiens), P04818 (protein)
# chain: MPVAGSELPRRPLPPAAQERDAEPRPPHGELQYLGQIQHILRCGVRKDDRTGTGTLSVFGMQARYSLRDEFPLLTTKRVFWKGVLEELLWFIKGSTNAKELSSKGVKIWDANGSRDFLDSLGFSTREEGDLGPVYGFQWRHFGAEYRDMESDYSGQGVDQLQRVIDTIKTNPDDRRIIMCAWNPRDLPLMALPPCHALCQFYVVNSELSCQLYQRSGDMGLGVPFNIASYALLTYMIAHITGLKPGDFIHTLGDAHIYLNHIEPLKIQLQREPRPFPKLRILRKVEKIDDFKAEDFQIEGYNPHPTIKMEMAV
# How the values were obtained:
# [1] = substrate: O=c1ccn([C@@H]2O[C@H](COP(=O)(O)O)[C@@H](O)[C@H]2F)c(=O)[nH]1; conditions: Homo sapiens
# Description: (§1) Activity at human recombinant thymidylate synthase
# [2] = substrate: O=c1ccn([C@H]2C[C@H](O)[C@@H](COP(=O)(O)O)O2)c(=O)[nH]1; conditions: Homo sapiens
# Description: as §1
protein,measurement,setting,value
B1,Km,[1],12.2 µM
same,Km,[2],5.25 µM
